Laboratory results published in the supplement of paper PMC7877785.
± gives the uncertainty stated by the source.

Experiment: self-splicing fitness, log relative to wild type (ln ratio); higher = more splicing; Tetrahymena group I intron in knt gene, E. coli kanamycin selection, DiMSum; sequences stand for … in CUCUCU…GGAGGGAAAAGUUAUCAGGCAUGCACCUGGUAGCUAGUCUUUAAACCAAUAGAUUGCAUCGGUUUAAAAGGCAAGACCGUCAAAUUGCGGGAAAGGGGUCAACAGCCGUUCAGUACCAAGUCUCAGGGGAAACUUUGAGAUGGCCUUGCAAAGGGUAUGGUAAUAAGCUGACGGACAUGGUCCUAACCACGCAGCCAAGUCCUAAGUCAACAGAUCUUCUGUUGAUAUGGAUGCAGUUCACAGACUAAAUGUCGGUCGGGGAAGAUGUAUUCUUCUCAUAAGAUAUAGUCGGACCUCUCCUUAAUGGGAGCUAGCGGAUGAAGUGAUGCAACACUGGAGCCGCUGGGAACUAAUUUGUAUGCGAAAGUAUAUUGAUUAGUUUUGGAGUACUCGUGGUCG
Outline: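 DiMSum derived fitness as the error-weighted combination of fold changes across replicates, kanamycin versus no kanamycin, normalised to wild type. E. coli BL21(DE3) held the library, which randomised all eight P1ex-region intron nucleotides within the knt kanamycin-resistance gene on pET-22b(+). Six replicate transformations grew overnight at 37°C or 30°C on LB agar with or without 25 μg/mL kanamycin, also containing 100 μg/mL carbenicillin, 50 μM IPTG and 0.2% rhamnose, and pooled colonies were amplicon-sequenced on an Illumina HiSeq 2500.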

Row | Sequence | self-splicing fitness (ln) (30 °C) | self-splicing fitness (ln) (37 °C)
1 | CGUCAGCAAUAUUACGGCCC | -1.75 ± 0.17 | -0.728 ± 0.24
2 | CGUCAGCAAUAUUACGUAAG | 0.214 ± 0.054 | 0.2 ± 0.07
3 | CGUCAGCAAUAUUACGUACC | -1.33 ± 0.13 | 0.208 ± 0.15
4 | CGUCAGCAAUAUUACGUACG | -3.6 ± 0.43 | -2.97 ± 0.37
5 | CGUCAGCAAUAUUACGUCGA | -2.18 ± 0.1 | -1.77 ± 0.14
6 | CGUCAGCAAUAUUACGUUGG | -3.57 ± 0.11 | -2.78 ± 0.16
7 | CGUGAGCAAUAUUACGAAAA |  | -2.88 ± 0.43
8 | CGUGAGCAAUAUUACGACGU | -2.12 ± 0.19 | -2.37 ± 0.18
9 | CGUGAGCAAUAUUACGAGUG | -1.24 ± 0.12 | 0.147 ± 0.16
10 | CGUGAGCAAUAUUACGAGUU | -3.88 ± 0.47 | -3.72 ± 0.36
11 | CGUGAGCAAUAUUACGCACU | -0.892 ± 0.13 | -0.687 ± 0.13
12 | CGUGAGCAAUAUUACGCAUC | -1.85 ± 0.48 | -2.43 ± 0.35
13 | CGUGAGCAAUAUUACGCGUG | -2 ± 0.13 | -0.684 ± 0.1
14 | CGUGAGCAAUAUUACGCUUC | -3.91 ± 0.41 | -3.07 ± 0.43
15 | CGUGAGCAAUAUUACGGAAG | -1.17 ± 0.1 | -1.01 ± 0.13
16 | CGUGAGCAAUAUUACGGCGA | -2.31 ± 0.36 | -0.845 ± 0.34
17 | CGUGAGCAAUAUUACGGCGC | -3.69 ± 0.34 | -2.43 ± 0.37
18 | CGUGAGCAAUAUUACGGUGA | -2.84 ± 0.31 | -2.04 ± 0.38
19 | CGUGAGCAAUAUUACGUAUA | -2.71 ± 0.18 | -1.55 ± 0.18
20 | CGUGAGCAAUAUUACGUCAU | -2.46 ± 0.21 | -2.81 ± 0.24
21 | CGUGAGCAAUAUUACGUCCG | -1.95 ± 0.16 | -0.866 ± 0.22
22 | CGUGAGCAAUAUUACGUGCA | -1.36 ± 0.13 | 0.0971 ± 0.14
23 | CGUGAGCAAUAUUACGUUGA | -2.89 ± 0.3 | -2.94 ± 0.43
24 | CGUGAGCAAUAUUACGUUGC | -2.69 ± 0.21 | -2.51 ± 0.32

Row | Sequence | self-splicing fitness (ln) (30 °C) | self-splicing fitness (ln) (37 °C)
25 | CGUGAGCAAUAUUACGUUGG | -2.62 ± 0.12 | -1.45 ± 0.11
26 | CGUUAGCAAUAUUACGAAAA | -2.76 ± 0.49 | -1.83 ± 0.3
27 | CGUUAGCAAUAUUACGAACC | -0.385 ± 0.069 | -0.0684 ± 0.073
28 | CGUUAGCAAUAUUACGACCU | -0.403 ± 0.2 | -0.596 ± 0.18
29 | CGUUAGCAAUAUUACGAGCA | -0.917 ± 0.09 | -0.809 ± 0.089
30 | CGUUAGCAAUAUUACGAGCC | -2.52 ± 0.21 | 0.132 ± 0.17
31 | CGUUAGCAAUAUUACGAUCA | -0.373 ± 0.16 | 0.245 ± 0.17
32 | CGUUAGCAAUAUUACGAUGA | -1.79 ± 0.13 | -0.842 ± 0.13
33 | CGUUAGCAAUAUUACGAUUG | -0.332 ± 0.073 | -0.316 ± 0.084
34 | CGUUAGCAAUAUUACGCAGC | -2.48 ± 0.25 | -3.07 ± 0.43
35 | CGUUAGCAAUAUUACGCCGC | -3.14 ± 0.3 | -2.73 ± 0.43
36 | CGUUAGCAAUAUUACGCGAC | -3.76 ± 0.26 | -1.84 ± 0.17
37 | CGUUAGCAAUAUUACGCGGC | -2.07 ± 0.23 | -2.19 ± 0.26
38 | CGUUAGCAAUAUUACGCGGG | -3.91 ± 0.24 | -3.13 ± 0.29
39 | CGUUAGCAAUAUUACGCGGU | -3.07 ± 0.19 | -3.35 ± 0.29
40 | CGUUAGCAAUAUUACGCUAG | -2.66 ± 0.17 | -1.51 ± 0.25
41 | CGUUAGCAAUAUUACGCUCU | -1.56 ± 0.14 | -1.07 ± 0.17
42 | CGUUAGCAAUAUUACGGAGU | -4.73 ± 0.31 | -3.23 ± 0.26
43 | CGUUAGCAAUAUUACGGCCA | -1.01 ± 0.29 | -2.55 ± 0.46
44 | CGUUAGCAAUAUUACGGGAG | -3.32 ± 0.2 | -2.39 ± 0.17
45 | CGUUAGCAAUAUUACGGUGC | -3.11 ± 0.23 | -2.59 ± 0.5
46 | CGUUAGCAAUAUUACGGUUA | -1.55 ± 0.21 | -1.66 ± 0.17
47 | CGUUAGCAAUAUUACGGUUC | -3.01 ± 0.38 | -1.83 ± 0.31
